Results on one molecule are retold here after CN115806612A (SHENZHEN KANGTI BIOMEDICAL TECH CO LTD, dated 2023).

The assay has as its target APP蛋白 (amyloid precursor protein, APP). Briefly: SPR.

Sequence of APP蛋白 (amyloid precursor protein, APP) (chain, as listed by the source): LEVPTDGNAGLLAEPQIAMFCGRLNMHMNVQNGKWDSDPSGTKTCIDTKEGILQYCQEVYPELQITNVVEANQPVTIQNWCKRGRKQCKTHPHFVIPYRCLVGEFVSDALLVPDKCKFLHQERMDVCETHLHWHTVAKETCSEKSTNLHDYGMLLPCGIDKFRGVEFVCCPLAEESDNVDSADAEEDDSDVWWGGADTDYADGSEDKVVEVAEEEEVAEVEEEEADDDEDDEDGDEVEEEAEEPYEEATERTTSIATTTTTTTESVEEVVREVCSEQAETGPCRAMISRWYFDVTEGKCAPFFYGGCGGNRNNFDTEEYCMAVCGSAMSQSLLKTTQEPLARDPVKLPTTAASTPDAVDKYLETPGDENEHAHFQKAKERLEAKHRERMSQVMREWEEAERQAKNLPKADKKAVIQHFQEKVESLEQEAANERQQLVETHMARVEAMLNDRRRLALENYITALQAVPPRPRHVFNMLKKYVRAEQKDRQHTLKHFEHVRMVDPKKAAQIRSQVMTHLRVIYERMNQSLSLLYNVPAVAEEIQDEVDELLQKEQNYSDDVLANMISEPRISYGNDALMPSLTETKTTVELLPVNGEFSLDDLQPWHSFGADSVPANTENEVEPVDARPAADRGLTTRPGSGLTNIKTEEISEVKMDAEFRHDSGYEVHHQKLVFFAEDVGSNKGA

B1: 纳米抗体P2-10C (anti-APP nanobody P2-10C) (VHH)
VHH: DVQLQESGGGLVQPGGSLRLSCAASGIIFSGYYMSWVRQAPGKGPEWVSSINPSGSSTRYADSVKGRFTISRDNAKNTVYLQMYSLKPEDTALYYCSRSRDGLGDVRGQGTQVTVSS
notes: Monovalent alpaca VHH expressed from pET22b in E. coli BL21 and purified on Ni resin and by size exclusion; also called 抗APP的纳米抗体; 抗APP单域重链抗体
As a reminder, the koff is a measure of how fast the partners let go of each other. A low value points to slow dissociation. As a reminder, the kon is the second-order rate constant of association. Low values mean slower complex formation, high ones faster complex formation. As to B1, the Kd turned out to be 70 nM, the koff turned out to be 0.00921 s⁻¹ and the kon amounted to 130000 M⁻¹ s⁻¹.
